From patent publication US20260191907A1 (INSTITUT CURIE, published 2026)

How the values were obtained:
[1] = biological target: T1, FGFR4 expressed on the surface of RMS cells (Rh4-FR4 wt, Rh30) (human, UniProt P22455 22-802); assay: flow cytometry of DiR fluorescence, liposomes at 0.5 mM lipid on Rh4-FR4 wt cells; reference L-mCh
T1 construct: Endogenous FGFR4 of the rhabdomyosarcoma cell lines; The whole entry includes the signal peptide; also called cell-surface FGFR4; Rh4-FR4 wt cells
Description: (§1) Samples were analyzed after two washes by flow cytometry on a MACSQuant® cytometer (Miltenyi) and results were analyzed with FlowJo™ software (BD Biosciences, France). Phages displaying anti-mCherry nanobodies were used as negative control²⁴ and as positive control we used an anti-FGFR4 antibody (BT53, kindly provided by J. Khan lab, NCI, Bethesda, MD). For binding test of recombinant nanobodies, cells were detached with Accutase® (Stemcell Technologies) and washed with PBS. All following steps were performed on ice: 4×10⁵ cells were incubated with nanobody concentrations of 30 μg/ml for 1 h, washed once with PBS and incubated for an additional 30 min with anti His-tag FITC labeled antibody (LS-C57341, LSBioscience, diluted 1:10). The cells were washed once more with PBS and analyzed. Targeting liposomes were added at 0.5 mM final lipid concentration to cells in 96-well plates and incubated for 2 h at 37° C. and 5% CO₂. The cells were washed twice with PBS and detached with Accutase®.
(§2) We next wanted to test if nanobodies on the liposomal surface can still bind to FGFR4 expressing RMS cells. Rh4-FR4 wt and Rh4-FR4ko cells were incubated for 2 h with FGFR4-targeted liposomes or mCherry-targeted control liposomes under normal cell culture conditions. DiR fluorescence was subsequently analyzed by flow cytometry (FIG. 5).

[2] = biological target: T1, FGFR4 expressed on the surface of RMS …; assay: flow cytometry of DiR fluorescence, liposomes at 0.5 mM lipid on Rh4-FR4 wt cells, 2 h at 37 °C
Description: as §1, with “Binding validation of selected phages, recombinant nanobodies and decorated liposomes was performed on Rh4-FR4 wt and Rh4-FR4ko cells. Specificity of selected phage clones binding to FGFR4 was determined by flow cytometry in 96-well plates (Becton Dickinson). Cell surface staining of Rh4-FR4 wt or Rh4-FR4ko cells was performed on ice in PBS supplemented with 1% FBS. 80 μL phages+20 μL PBS/1% milk were incubated on 1×10⁵ cells for 1 h on ice. […] Samples” for “Samples”
as §2

T1 sequence (P22455 22-802 limits assumed): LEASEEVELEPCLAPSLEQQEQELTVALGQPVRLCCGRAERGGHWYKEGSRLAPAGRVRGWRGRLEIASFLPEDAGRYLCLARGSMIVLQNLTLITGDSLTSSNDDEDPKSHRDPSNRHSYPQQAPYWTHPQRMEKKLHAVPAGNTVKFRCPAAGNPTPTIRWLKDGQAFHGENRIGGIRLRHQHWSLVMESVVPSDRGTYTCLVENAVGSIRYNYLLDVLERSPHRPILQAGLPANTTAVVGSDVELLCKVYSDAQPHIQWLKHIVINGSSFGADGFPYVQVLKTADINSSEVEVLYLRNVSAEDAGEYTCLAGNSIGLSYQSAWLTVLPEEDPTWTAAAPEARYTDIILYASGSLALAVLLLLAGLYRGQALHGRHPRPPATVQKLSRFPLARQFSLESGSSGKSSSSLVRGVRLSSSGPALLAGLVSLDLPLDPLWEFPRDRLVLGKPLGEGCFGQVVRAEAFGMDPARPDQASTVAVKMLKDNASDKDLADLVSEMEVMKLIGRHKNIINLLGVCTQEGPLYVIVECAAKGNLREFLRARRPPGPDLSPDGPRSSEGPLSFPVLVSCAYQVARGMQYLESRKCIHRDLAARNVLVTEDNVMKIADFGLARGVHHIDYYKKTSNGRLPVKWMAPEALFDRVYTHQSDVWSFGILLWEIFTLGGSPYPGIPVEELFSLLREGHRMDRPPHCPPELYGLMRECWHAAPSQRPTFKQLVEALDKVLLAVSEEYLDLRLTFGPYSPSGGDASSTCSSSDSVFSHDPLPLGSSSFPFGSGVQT

B1: L-B5, VCR-loaded fluorescent liposomes decorated with nanobody B5 (other)
VHH: EVQLQASGGGFVQPGGSLRLSCAASGRTSWLTTMGWFRQAPGKEREFVSAISSFSSKQGYYADSVKGRFTISRDNSKNTVYLQMNSLRAEDTATYYCAYASYPRHQGNGRWKDFVEYWGQGTQVTVSS
modifications: C-terminal cysteine coupled to DSPE-PEG-maleimide on the liposomal surface
notes: Liposome as for L-A8; also called FGFR4-targeted liposomes; not shown: C-terminal Myc/6xHis-tag and an additional cysteine
In the case of B1, the “fold increase of MFI over L-mCh” value [1] is reported as 34 fold and the MFI [2] is reported as 1700 MFI.

B2: L-F8, VCR-loaded fluorescent liposomes decorated with nanobody F8 (other)
VHH: EVQLVESGGGLVQPGGSLRLSCAASGTGYALDDMGWVRQAPGKGLEWVSAISDDESMADYYADSVKGRFTISRDNSKNTVYLQMNSLRAEDTAVYYCASYKEYKYQSGHHYFAYRGQGTLVTVSS
modifications: C-terminal cysteine coupled to DSPE-PEG-maleimide on the liposomal surface
notes: as for B1
With B2 the “fold increase of MFI over L-mCh” value [1] was 28 fold and the MFI [2] was 1400 MFI.

B3: L-A8, VCR-loaded fluorescent liposomes decorated with nanobody A8 (other)
VHH: EVQLQASGGGFVQPGGSLRLSCAASGRTYSRDTMGWFRQAPGKEREFVSAISSRHSHTTYYADSVKGRFTISRDNSKNTVYLQMNSLRAEDTATYYCAEWDVFDMHYALPPMWYWGQGTQVTVSS
modifications: C-terminal cysteine coupled to DSPE-PEG-maleimide on the liposomal surface
notes: Liposome of egg sphingomyelin, cholesterol, PEG-ceramide, DSPE-PEG-maleimide and DiR, loaded with vincristine; also called FGFR4-targeted liposomes; not shown: C-terminal Myc/6xHis-tag and an additional cysteine
With B3 the “fold increase of MFI over L-mCh” value [1] was 6 fold and the MFI [2] was 300 MFI.

B4: L-B1, VCR-loaded fluorescent liposomes decorated with nanobody B1 (other)
VHH: EVQLQASGGGFVQPGGSLRLSCAASGYTSRSSAMGWFRQAPGKEREFVSAISDLTGYPYYYADSVKGRFTISRDNSKNTVYLQMNSLRAEDTATYYCAAYQDDKWTYGSQHGKYWGQGTQVTVSS
modifications: C-terminal cysteine coupled to DSPE-PEG-maleimide on the liposomal surface
notes: as for B1
B4 was tested, and the “fold increase of MFI over L-mCh” value [1] was 12 fold and the MFI [2] was 600 MFI.
